The assay addresses T1, carcinoembryonic antigen (CEA) on MKN-45 tumor cells (human, UniProt P06731 35-702).
T1 sequence (looked up): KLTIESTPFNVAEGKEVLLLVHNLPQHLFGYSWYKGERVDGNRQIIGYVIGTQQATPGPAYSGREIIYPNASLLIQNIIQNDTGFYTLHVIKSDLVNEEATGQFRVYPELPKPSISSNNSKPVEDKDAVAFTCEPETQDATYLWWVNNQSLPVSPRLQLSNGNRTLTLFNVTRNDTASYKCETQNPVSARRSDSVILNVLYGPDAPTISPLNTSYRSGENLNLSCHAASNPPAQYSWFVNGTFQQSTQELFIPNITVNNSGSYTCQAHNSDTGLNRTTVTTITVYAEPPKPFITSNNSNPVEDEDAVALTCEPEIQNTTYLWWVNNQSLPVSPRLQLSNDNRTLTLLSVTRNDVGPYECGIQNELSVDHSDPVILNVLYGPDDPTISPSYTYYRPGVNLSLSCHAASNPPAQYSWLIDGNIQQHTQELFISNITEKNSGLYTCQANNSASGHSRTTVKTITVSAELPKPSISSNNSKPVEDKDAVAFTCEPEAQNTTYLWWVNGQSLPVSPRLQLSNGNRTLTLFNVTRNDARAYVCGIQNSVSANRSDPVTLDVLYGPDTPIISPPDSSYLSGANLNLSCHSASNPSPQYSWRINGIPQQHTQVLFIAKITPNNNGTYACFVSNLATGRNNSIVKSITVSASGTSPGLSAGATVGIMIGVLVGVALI
Description: cell-based or functional assay.

B1: CEA TCB (bispecific antibody)
chain 1: QAVVTQEPSLTVSPGGTVTLTCGSSTGAVTTSNYANWVQEKPGQAFRGLIGGTNKRAPGTPARFSGSLLGGKAALTLSGAQPEDEAEYYCALWYSNLWVFGGGTKLTVLSSASTKGPSVFPLAPSSKSTSGGTAALGCLVKDYFPEPVTVSWNSGALTSGVHTFPAVLQSSGLYSLSSVVTVPSSSLGTQTYICNVNHKPSNTKVDKKVEPKSC
chain 2: not shown
chain 3: QVQLVQSGAEVKKPGASVKVSCKASGYTFTEFGMNWVRQAPGQGLEWMGWINTKTGEATYVEEFKGRVTFTTDTSTSTAYMELRSLRSDDTAVYYCARWDFAYYVEAMDYWGQGTTVTVSSASTKGPSVFPLAPSSKSTSGGTAALGCLVKDYFPEPVTVSWNSGALTSGVHTFPAVLQSSGLYSLSSVVTVPSSSLGTQTYICNVNHKPSNTKVDKKVEPKSCDKTHTCPPCPAPEAAGGPSVFLFPPKPKDTLMISRTPEVTCVVVDVSHEDPEVKFNWYVDGVEVHNAKTKPREEQYNSTYRVVSVLTVLHQDWLNGKEYKCKVSNKALGAPIEKTISKAKGQPREPQVCTLPPSRDELTKNQVSLSCAVKGFYPSDIAVEWESNGQPENNYKTTPPVLDSDGSFFLVSKLTVDKSRWQQGNVFSCSVMHEALHNHYTQKSLSLSPGK
chain 4: DIQMTQSPSSLSASVGDRVTITCKASAAVGTYVAWYQQKPGKAPKLLIYSASYRKRGVPSRFSGSGSGTDFTLTISSLQPEDFATYYCHQYYTYPLFTFGQGTKLEIKRTVAAPSVFIFPPSDEQLKSGTASVVCLLNNFYPREAKVQWKVDNALQSGNSQESVTEQDSKDSTYSLSSTLTLSKADYEKHKVYACEVTHQGLSSPVTKSFNRGEC
For B1, the “EC50 of tumor cell killing (LDH release, MKN-45 cells with human PBMCs, E:T 10:1, 24 h)” value was found to be 0.615 nM and the “EC50 of tumor cell killing (LDH release, MKN-45 cells with human PBMCs, E:T 10:1, 48 h)” value amounted to 0.362 nM.

Values taken from patent publication US20200376119A1 (Hoffmann-La Roche, published 2020).
